Source: the supplement of paper PMC7877785
± gives the uncertainty stated by the source.

Assay: self-splicing fitness, log relative to wild type (ln ratio); higher = more splicing; Tetrahymena group I intron in knt gene, E. coli kanamycin selection, DiMSum; sequences stand for … in CUCUCU…GGAGGGAAAAGUUAUCAGGCAUGCACCUGGUAGCUAGUCUUUAAACCAAUAGAUUGCAUCGGUUUAAAAGGCAAGACCGUCAAAUUGCGGGAAAGGGGUCAACAGCCGUUCAGUACCAAGUCUCAGGGGAAACUUUGAGAUGGCCUUGCAAAGGGUAUGGUAAUAAGCUGACGGACAUGGUCCUAACCACGCAGCCAAGUCCUAAGUCAACAGAUCUUCUGUUGAUAUGGAUGCAGUUCACAGACUAAAUGUCGGUCGGGGAAGAUGUAUUCUUCUCAUAAGAUAUAGUCGGACCUCUCCUUAAUGGGAGCUAGCGGAUGAAGUGAUGCAACACUGGAGCCGCUGGGAACUAAUUUGUAUGCGAAAGUAUAUUGAUUAGUUUUGGAGUACUCGUGGUCG
Method in brief: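 Six replicate transformations of E. coli BL21(DE3) with a pET-22b(+) library were grown overnight at 37°C or 30°C. The library randomised all eight P1ex-region intron nucleotides, the intron lying in the knt kanamycin-resistance gene, and plates were LB agar with or without 25 μg/mL kanamycin plus 100 μg/mL carbenicillin, 50 μM IPTG and 0.2% rhamnose. Pooled colonies were amplicon-sequenced on an Illumina HiSeq 2500, and fitness is the DiMSum error-weighted combination of wild-type-normalised replicate fold changes, kanamycin versus none.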

GGGAAGCAAUAUUACGCCUG
self-splicing fitness (ln) (30 °C): -0.0824 ± 0.11
self-splicing fitness (ln) (37 °C): -0.324 ± 0.16

GCAAAGCAAUAUUACGCUGG
self-splicing fitness (ln) (30 °C): -2.41 ± 0.13
self-splicing fitness (ln) (37 °C): -0.395 ± 0.14

CGCUAGCAAUAUUACGUCCC
self-splicing fitness (ln) (30 °C): -2.63 ± 0.16
self-splicing fitness (ln) (37 °C): -1.54 ± 0.19

AUGGAGCAAUAUUACGAACU
self-splicing fitness (ln) (30 °C): -1.95 ± 0.28
self-splicing fitness (ln) (37 °C): -1.45 ± 0.24

GAGAAGCAAUAUUACGUUUC
self-splicing fitness (ln) (30 °C): -3.64 ± 0.32
self-splicing fitness (ln) (37 °C): -3.08 ± 0.27

GCAGAGCAAUAUUACGAUGU
self-splicing fitness (ln) (30 °C): -4.4 ± 0.34
self-splicing fitness (ln) (37 °C): -2.42 ± 0.19

CUUCAGCAAUAUUACGGUUA
self-splicing fitness (ln) (30 °C): -1.58 ± 0.19
self-splicing fitness (ln) (37 °C): -1.08 ± 0.2

AGCUAGCAAUAUUACGGAGU
self-splicing fitness (ln) (30 °C): -2.94 ± 0.22
self-splicing fitness (ln) (37 °C): -2.18 ± 0.24

ACAAAGCAAUAUUACGGGUC
self-splicing fitness (ln) (30 °C): -3.18 ± 0.14
self-splicing fitness (ln) (37 °C): -1.76 ± 0.2

ACACAGCAAUAUUACGAGCG
self-splicing fitness (ln) (30 °C): -0.734 ± 0.074
self-splicing fitness (ln) (37 °C): -0.104 ± 0.088

AGCCAGCAAUAUUACGUUUG
self-splicing fitness (ln) (30 °C): -3.47 ± 0.13
self-splicing fitness (ln) (37 °C): -3.22 ± 0.23

CUCUAGCAAUAUUACGACCU
self-splicing fitness (ln) (30 °C): -2.94 ± 0.3

CAUAAGCAAUAUUACGGCUU
self-splicing fitness (ln) (30 °C): -2.75 ± 0.2
self-splicing fitness (ln) (37 °C): -3.07 ± 0.32

ACAAAGCAAUAUUACGGAGC
self-splicing fitness (ln) (30 °C): -3.17 ± 0.13
self-splicing fitness (ln) (37 °C): -2.62 ± 0.15

UUGGAGCAAUAUUACGUCCA
self-splicing fitness (ln) (30 °C): -2.2 ± 0.2
self-splicing fitness (ln) (37 °C): -1.74 ± 0.23

UGAUAGCAAUAUUACGGAGG
self-splicing fitness (ln) (30 °C): -2.79 ± 0.26
self-splicing fitness (ln) (37 °C): -1.56 ± 0.36

UGAAAGCAAUAUUACGCCGU
self-splicing fitness (ln) (30 °C): -2.92 ± 0.29
self-splicing fitness (ln) (37 °C): -1 ± 0.16

GUCAAGCAAUAUUACGUCCC
self-splicing fitness (ln) (30 °C): -1.22 ± 0.29
self-splicing fitness (ln) (37 °C): -0.2 ± 0.26

GAAGAGCAAUAUUACGUGUG
self-splicing fitness (ln) (30 °C): -3.15 ± 0.22
self-splicing fitness (ln) (37 °C): -2.67 ± 0.18

CAGAAGCAAUAUUACGUCGG
self-splicing fitness (ln) (30 °C): -1.61 ± 0.14
self-splicing fitness (ln) (37 °C): -0.979 ± 0.2

CGUGAGCAAUAUUACGCCGG
self-splicing fitness (ln) (30 °C): -2.32 ± 0.24
self-splicing fitness (ln) (37 °C): -2.58 ± 0.39

GAUCAGCAAUAUUACGCGGC
self-splicing fitness (ln) (30 °C): -3.7 ± 0.37
self-splicing fitness (ln) (37 °C): -2.89 ± 0.4

AAGUAGCAAUAUUACGCCGC
self-splicing fitness (ln) (30 °C): -3.12 ± 0.38

CACAAGCAAUAUUACGCAGG
self-splicing fitness (ln) (30 °C): -2.65 ± 0.15
self-splicing fitness (ln) (37 °C): -1.01 ± 0.13

UCUGAGCAAUAUUACGUUUA
self-splicing fitness (ln) (30 °C): -2.83 ± 0.17
self-splicing fitness (ln) (37 °C): -2.65 ± 0.19

CCGCAGCAAUAUUACGAUUU
self-splicing fitness (ln) (30 °C): -3.28 ± 0.14
self-splicing fitness (ln) (37 °C): -2.22 ± 0.15

UUCAAGCAAUAUUACGGGUG
self-splicing fitness (ln) (30 °C): -0.476 ± 0.045
self-splicing fitness (ln) (37 °C): -0.593 ± 0.06

UUGUAGCAAUAUUACGAGUG
self-splicing fitness (ln) (30 °C): -1.69 ± 0.14
self-splicing fitness (ln) (37 °C): -0.408 ± 0.12

UGGUAGCAAUAUUACGAGGU
self-splicing fitness (ln) (30 °C): -2.63 ± 0.45
self-splicing fitness (ln) (37 °C): -2.6 ± 0.35

UCAUAGCAAUAUUACGCGUC
self-splicing fitness (ln) (30 °C): -3.76 ± 0.31

AGGGAGCAAUAUUACGUCAU
self-splicing fitness (ln) (30 °C): -3.06 ± 0.28
self-splicing fitness (ln) (37 °C): -2.74 ± 0.31

UUUAAGCAAUAUUACGUUUA
self-splicing fitness (ln) (30 °C): -2.69 ± 0.17
self-splicing fitness (ln) (37 °C): -2.1 ± 0.11

CUCUAGCAAUAUUACGCCGG
self-splicing fitness (ln) (30 °C): -2.98 ± 0.31
self-splicing fitness (ln) (37 °C): -1.92 ± 0.45

CUCGAGCAAUAUUACGCGCG
self-splicing fitness (ln) (30 °C): -2.81 ± 0.27
self-splicing fitness (ln) (37 °C): -1.48 ± 0.32

CGCCAGCAAUAUUACGCGCU
self-splicing fitness (ln) (30 °C): -3.54 ± 0.15
self-splicing fitness (ln) (37 °C): -2.52 ± 0.15

UCGCAGCAAUAUUACGGAAU
self-splicing fitness (ln) (30 °C): -2.75 ± 0.27
self-splicing fitness (ln) (37 °C): -2.5 ± 0.26

UUUGAGCAAUAUUACGUCUG
self-splicing fitness (ln) (30 °C): -2.41 ± 0.24
self-splicing fitness (ln) (37 °C): -0.733 ± 0.21

UCCCAGCAAUAUUACGCAUU
self-splicing fitness (ln) (30 °C): -2.93 ± 0.076
self-splicing fitness (ln) (37 °C): -1.58 ± 0.082
